Results reported in EP4628892A1 (Korea Research Institute of Bioscience and Biotechnology, dated 2025).

T1: hNgR1-his (human, UniProt Q9BZR6 27-447, limits assumed)
T1 construct: Soluble antigen flowed over antibodies captured on Protein A chips; also called antigen protein (hNgR1-his); the antigen; not shown: histidine tag
T1 sequence (looked up): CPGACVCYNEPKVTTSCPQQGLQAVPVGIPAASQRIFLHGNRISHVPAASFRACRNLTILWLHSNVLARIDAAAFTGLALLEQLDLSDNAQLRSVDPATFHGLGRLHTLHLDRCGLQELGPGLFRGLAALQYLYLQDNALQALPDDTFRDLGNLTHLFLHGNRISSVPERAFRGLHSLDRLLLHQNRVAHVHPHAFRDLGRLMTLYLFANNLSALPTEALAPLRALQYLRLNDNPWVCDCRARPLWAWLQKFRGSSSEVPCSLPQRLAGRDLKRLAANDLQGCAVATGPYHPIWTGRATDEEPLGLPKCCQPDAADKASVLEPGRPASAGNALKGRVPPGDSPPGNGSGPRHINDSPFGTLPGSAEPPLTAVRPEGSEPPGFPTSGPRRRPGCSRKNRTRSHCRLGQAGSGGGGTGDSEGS

B1: H6HE2L antibody (antibody, human IgG1, kappa, V domains shown)
VH: QMQLVQSGGGLEQPGRSLRLSCVTSGFNFNDYAMHWVRQAPGKGLEWVSGISWNSGAIGYADSVKGRFTVSRDNSKNSLYLQMNSLRAEDTAVYYCARDYNYETSGYYHGFDNWGQGTLVTVSS
VL: DIQMTQSPSSVSASVGDRVTITCRASQGISRWLSWYQQKPGKAPKLLIYAASNLQSGVPLRFSGSGSGTDFTLTINSLQPEDSATYYCQQTNNFPYTFGQGTKVEIKR
notes: Optimized from CSA108
B2: CSA123 antibody (antibody, human IgG1, kappa, V domains shown)
VH: QMQLVQSGAEVKKPGASVKVSCKVSGYTLSELSIHWVRQAPGKGLEWMGGFDPEDDETVYAQKFQGRVTLTDDTSTDTAYMELSSLRSEDTAVYYCARDLGYLTSGNYYDAFDIWGRGTMITVSS
VL: DIQMTQSPSSVSASVGDRVTITCRASQDINRWLAWYQQKPGKAPKLLIYAASRLQSGVPLRFSGSGSGTDFTLTINSLQPEDSATYYCQQTNNFPRTFGQGTRLEIKR
notes: also called anti-NgR1 antibody CSA123
B3: CSA108 antibody (antibody, human IgG1, kappa, V domains shown)
VH: QMQLVQSGGGLEQPGRSLRLSCVTSGFNFNDYAMHWVRQAPGKGLEWVSGISWNSGAIGYADSVKGRFTVSRDNSKNSLYLQMNSLRAEDTAVYYCARDYYYETSGYYYGFDNWGQGTLVTVSS
VL: DIQMTQSPSSVSASVGDRVTITCRASQGISRWLAWYQQKPGKAPKLLIYAASNLQSGVPLRFSGSGSGTDFTLTINSLQPEDSATYYCQQTNNFPYTFGQGTKVEIKR
notes: also called anti-NgR1 antibody CSA108
B4: C1HE2E6 antibody (antibody, human IgG1, kappa, V domains shown)
VH: QMQLVQSGGGLEQPGRSLRLSCVTSGFNFNDYAMHWVRQAPGKGLEWVSGISWNSGAIGYADSVKGRFTVSRDNSKNSLYLQMNSLRAEDTAVYYCARDYNYEISGYYYGFDNWGQGTLVTVSS
VL: DIQMTQSPSSVSASVGDRVTITCRASQGISRWLSWYQQKPGKAPKLLIYAASNLQSGVPLRFSGSGFGTDFTLTINSLQPEDSATYYCQQTNNFPYTFGQGTKVEIKR
notes: Optimized from CSA108
B5: S3 antibody (antibody, human IgG1, kappa, V domains shown)
VH: QMQLVQSGAEVKKPGASVKVSCKVSGYTLSELSIHWVRQAPGKGLEWMGGFDPEDDETVYAQKFQGRVTLTDDTSTDTAYMELSSLRSEDTAVYYCARDLGYLTSGNYYNAFGIWGRGTMITVSS
VL: DIQMTQSPSSVSASVGDRVTITCRASQDINRWLAWYQQKPGKAPKLLIYAASRLQSGVPLRFSGSGSGTDFTLTINSLQPEDSATYYCQQTNNFPRTFGQGTRLEIKR
notes: Optimized from CSA123
B6: D11 antibody (antibody, human IgG1, kappa, V domains shown)
VH: QMQLVQSGAEVKKPGASVKVSCKVSGYTLSELSIHWVRQAPGKGLEWMGGFDSEDDETVYAQKFQGRVTLTDDTSTDTAYMELSSLRSEDTAVYYCARDLGYLTSGNYYDAFDFWGRGTMITVSS
VL: DIQMTQSPSSVSASVGDRVTITCRASQDINRWLAWYQQKPGKAPKLLIYAASRLQSGVPLRFSGSGSGTDFTLTINSLQPEDSATYYCQQTNNFPRTFGQGTRLEIKR
notes: Optimized from CSA123
B7: G8 antibody (antibody, human IgG1, kappa, V domains shown)
VH: QMQLVQSGAEVKKPGASVKVSCKVSGYPLSELSIHWVRQAPGKGLEWMGGFDSEDDETVYAQKFQGRVTLTDDTSTDTAYMELSSLRSEDTAVYYCARDLGYLTSGNYYDAFGIWGRGTMITVSS
VL: DIQMTQSPSSVSASVGDRVTITCRASQDINRWLAWYQQKPGKAPKLLIYAASRLQSGVPLRFSGSGSGTDFTLTINSLQPEDSATYYCQQTNNFPRTFGQGTRLEIKR
notes: Optimized from CSA123
B8: S6 antibody (antibody, human IgG1, kappa, V domains shown)
VH: QMQLVQSGAEVKKPGASVKVSCKVSGYTLSGLSIHWVRQAPGKGLEWMGGFDSEDDETVYAQKFQGRVTLTDDTSTDTAYMELSSLRSEDTAVYYCARDLGYLTSGNYYDAFDIWGRGTMITVSS
VL: DIQMTQSPSSVSASVGDRVTITCRASQDINRWLAWYQQKPGKAPKLLIYAASRLQSGVPLRFSGSGSGTDFTLTINSLQPEDSATYYCQQTNNFPRTFGQGTRLEIKR
notes: Optimized from CSA123

Each binder was assayed against T1, hNgR1-his (assay: SPR, Biacore T200; IgG1 captured on Protein A chip, hNgR1-his flowed at different concentrations).
In the case of B1, the Kd is reported as 1.69 nM.
Work on B2 yielded a Kd of 31.5 nM.
With B3 the Kd was 23.3 nM.
In the case of B4, the Kd is reported as 0.194 nM.
B5 showed a Kd of 5.84 nM.
B6 gave a Kd of 5.33 nM.
In the case of B7, the Kd is reported as 4.15 nM.
In the case of B8, the Kd is reported as 5.51 nM.
